Assay results from publication doi:10.1101/2022.02.11.480038, “Phosphorylation by casein kinase 2 ensures ER-phagy receptor TEX264 binding to ATG8 proteins” (bioRxiv, 2022).
Where no end group is shown, it is not given here. [ ]: non-standard residue; d: D form. pS = N[C@@H](COP(=O)(O)O)C(=O)O

B1: TEX264 peptide (residues 269-278) with S272 phosphorylation (p-S272) (peptide)
peptide: SGS[pS]FEELDL
notes: also called p-Ser272; source: synthetic peptide, bought: GenScript; passed over Superdex peptide
B2: phosphomimetic TEX264^(S271, 272E) peptide (2SE-LIR) (peptide, UniProt Q9Y6I9 269-278, looked up)
peptide: SGEEFEELDL
notes: also called 2E-LIR; source: synthetic peptide, bought: GenScript; passed over Superdex peptide
B3: phosphomimetic TEX264^(S269E, S271E, S272E) peptide (3SE-LIR) (peptide, UniProt Q9Y6I9 269-278, looked up)
peptide: EGEEFEELDL
notes: also called 3E-LIR; source: synthetic peptide, bought: GenScript; passed over Superdex peptide
B4: phosphomimetic TEX264^(S271D, S272D) peptide (2SD-LIR) (peptide, UniProt Q9Y6I9 269-278, looked up)
peptide: SGDDFEELDL
notes: also called 2D-LIR; source: synthetic peptide, bought: GenScript; passed over Superdex peptide
B5: phosphomimetic TEX264^(S269D, S271D, S272D) peptide (3SD-LIR) (peptide, UniProt Q9Y6I9 269-278, looked up)
peptide: DGDDFEELDL
notes: also called 3D-LIR; source: synthetic peptide, bought: GenScript; passed over Superdex peptide
B6: TEX264 LIR peptide (residues 266-278) with S266 phosphorylation (p-S266) (peptide)
peptide: [pS]GASGSSFEELDL
notes: source: synthetic peptide, bought: GenScript; passed over Superdex peptide

Target: Human LC3B (residues 1-120) (human, UniProt Q9GZQ8 1-120)
Assay: ITC; Microcal iTC200, 25°C; TEX264 peptides 0.5 mM in the syringe, LC3B or GABARAP in the cell at 10-times lower concentration; single-site binding model
Settings: both partners purified

| Binder | fold enhancement of affinity over the unphosphorylated peptide [fold] | binding result |
| --- | --- | --- |
| B1 | 37 |  |
| B2 |  | binds |
| B3 |  | binds |
| B4 |  | binds |
| B5 |  | binds |
| B6 | 1.8 |  |

Target: T1, Human GABARAP (residues 1-116) (human, UniProt O95166 1-116)
T1 construct: GABARAP, human, residues 1-116; source: prepared as described previously (Mochida et al., 2020), purified
Assay: as above
Settings: both partners purified

T1 sequence (O95166 1-116): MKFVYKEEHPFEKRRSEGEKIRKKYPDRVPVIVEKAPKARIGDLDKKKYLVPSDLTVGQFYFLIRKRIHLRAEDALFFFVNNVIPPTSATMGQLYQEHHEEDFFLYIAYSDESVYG

| Binder | fold enhancement of affinity over the unphosphorylated peptide [fold] | fold enhancement of affinity over the unmodified peptide [fold] |
| --- | --- | --- |
| B1 | 23 |  |
| B2 |  | ~20 |
| B3 |  | ~20 |
| B4 |  | ~20 |
| B5 |  | ~20 |
| B6 | 6.5 |  |
